From patent US10000542 (Novo Nordisk, dated 2018)
Numbered stars: 1 amine (or outer) side, 2 acyl side, 3 side chain; on linkers, the order of the positions; unused ones are H or OH. Square brackets hold non-standard residues; d marks the D form. Side chains are listed from the residue outwards. Ends that are not written are not given here. * marks the point of attachment. Dodecanoyl(12-OPh(4-COOH)) = O=C(O)c1ccc(OCCCCCCCCCCCC(=O)*)cc1; Undecanoyl(11-OPh(4-COOH)) = O=C(O)c1ccc(OCCCCCCCCCCC(=O)*)cc1; γGlu = O=C(O)[C@H](CCC(=O)[*:2])N[*:1]; εLys = N[C@@H](CCCCN[*:1])C(=O)[*:2]; AEEA = NCCOCCOCC(=O)O; Aib = CC(C)(N)C(=O)O

Experiments:
[1] = biological target: T1, human GLP-1 receptor (human, UniProt P43220 24-463); experiment: SPA displacement of [125I]-GLP-1(7-36)NH2 from BHK membranes with human GLP-1 receptor, low HSA (0.001%)
T1 construct: whole, on cells; also called hGLP-1
Description: (§1) 50 ul (micro liter) HSA ("high albumin" experiment containing 2% HSA), or buffer ("low albumin" experiment containing 0.001% HSA) was added to Optiplate, and 25 ul of test compounds were added. 5-10 ug membrane protein/sample was added (50 ul) corresponding to 0.1-0.2 mg protein/ml (to be preferably optimised for each membrane preparation). SPA-particles (Wheatgerm agglutinin SPA beads, Perkin Elmer, #RPNQ0001) were added in an amount of 0.5 mg/well (50 ul). […] The plates were sealed with PlateSealer and incubated for 120 minutes at 30° C. while shaking. The plates were centrifuged (1500 rpm, 10 min) and counted in Topcounter.

[2] = biological target: T1, human GLP-1 receptor; experiment: SPA displacement of [125I]-GLP-1(7-36)NH2 from BHK membranes with human GLP-1 receptor, high HSA (2.0%)
Description: as §1

[3] = biological target: T1, human GLP-1 receptor; experiment: cell-based or functional assay
[4] = biological target: human serum albumin (HSA) (human, UniProt P02768 25-609); experiment: cell-based or functional assay
[5] = biological target: T1, human GLP-1 receptor; experiment: cell-based or functional assay; remark: listed apart in the source
[6] = biological target: T1, human GLP-1 receptor; experiment: cell-based or functional assay; remark: listed apart in the source
[7] = biological target: T1, human GLP-1 receptor; experiment: SPA displacement of [125I]-GLP-1(7-36)NH2 from BHK membranes with human GLP-1 receptor, high HSA (2.0%); remark: listed apart in the source

Chain of human serum albumin (HSA) (P02768 25-609 limits assumed): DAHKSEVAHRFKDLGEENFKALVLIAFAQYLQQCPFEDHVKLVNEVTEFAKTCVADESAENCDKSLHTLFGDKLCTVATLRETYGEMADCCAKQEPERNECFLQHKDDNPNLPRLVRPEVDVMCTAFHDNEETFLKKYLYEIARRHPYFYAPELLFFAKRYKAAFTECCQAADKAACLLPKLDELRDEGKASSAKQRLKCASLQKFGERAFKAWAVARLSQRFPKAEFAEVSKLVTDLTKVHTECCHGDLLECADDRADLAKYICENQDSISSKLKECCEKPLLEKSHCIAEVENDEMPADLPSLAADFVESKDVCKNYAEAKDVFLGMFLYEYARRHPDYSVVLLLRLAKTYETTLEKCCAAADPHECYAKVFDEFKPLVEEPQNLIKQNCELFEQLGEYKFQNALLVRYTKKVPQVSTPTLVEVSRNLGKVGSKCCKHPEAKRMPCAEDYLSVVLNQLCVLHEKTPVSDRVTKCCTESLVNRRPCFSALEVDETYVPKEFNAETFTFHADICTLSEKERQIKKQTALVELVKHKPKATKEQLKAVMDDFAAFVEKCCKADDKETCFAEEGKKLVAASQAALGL

H[Aib]EGTFTSDVSSYLEEQAAK([εLys-γGlu-γGlu-Undecanoyl(11-OPh(4-COOH))])EFIEWLVRGRK([εLys-γGlu-γGlu-Undecanoyl(11-OPh(4-COOH))])E (X stands for Aib)
IC50 [1]: 0.02 nM
IC50 [2]: 123 nM

H[Aib]EGTFTSDVSSYLEEQAAK([εLys-AEEA-AEEA-γGlu-Undecanoyl(11-OPh(4-COOH))])EFIAWLVRGRK([εLys-AEEA-AEEA-γGlu-Undecanoyl(11-OPh(4-COOH))])
IC50 [1]: 0.26 nM
EC50/pM (0% HSA), In vitro potency (CRE luciferase) [3]: 5.5 pM
EC50/pM (1% HSA), In vitro potency (CRE luciferase) [3]: 70 pM
IC50 [2]: 251 nM

B1: N^ε26-[(2S)-2-amino-6-[[(2S)-2-amino-6-[[(4S)-4-carboxy-4-[12-(4-carboxyphenoxy)dodecanoylamino]butanoyl]amino]hexanoyl]amino]hexanoyl], … (peptide)
peptide: HXEGTFTSDVSSYLEGQAAKEFIAWLVQGRK
modifications: Aib at 8; Lys 26 and Lys 37 each acylated at the epsilon-amino group with the side chain given in the name (numbering of GLP-1(7-37), His = 7)
IC50 [1]: 0.64 nM
EC50/pM (0% HSA), In vitro potency (CRE luciferase) [3]: 8.7 pM
EC50/pM (1% HSA), In vitro potency (CRE luciferase) [3]: 633 pM
EC50 (ratio 1% HSA/0% HSA), CRE luciferase [4]: 72 ratio
EC50/pM, In vitro potency (AlphaScreen) [5]: 116 pM
IC50 [2]: 321 nM

B2: N^ε26-[(2S)-2-amino-6-[[(2S)-2-amino-6-[[(4S)-4-carboxy-4-[11-(4-carboxyphenoxy)undecanoylamino]butanoyl]amino]hexanoyl]amino]hexanoyl], … (peptide)
peptide: HXEGTFTSDVSSYLEGQAAKEFIAHLVQGRK
modifications: Aib at 8; Lys 26 and Lys 37 each acylated at the epsilon-amino group with the side chain given in the name (numbering of GLP-1(7-37), His = 7)
EC50/pM (0% HSA), In vitro potency (CRE luciferase) [3]: 7.2 pM

B3: N^ε26-[(2S)-2-amino-6-[[(2S)-2-amino-6-[[(4S)-4-carboxy-4-[10-(4-carboxyphenoxy)decanoylamino]butanoyl]amino]hexanoyl]amino]hexanoyl], … (peptide)
peptide: HXEGTFTSDVSSYLEGQAAKEFIAHLVQGRK
modifications: Aib at 8; Lys 26 and Lys 37 each acylated at the epsilon-amino group with the side chain given in the name (numbering of GLP-1(7-37), His = 7)
IC50 [1]: 1.57 nM
In vitro potency (Example 45) (0% HSA) EC50/pM [6]: 11 pM
In vitro potency (Example 45) (1% HSA) EC50/pM [6]: 162 pM
EC50/pM (0% HSA), In vitro potency (CRE luciferase) [3]: 11 pM
IC50 [7]: 27 nM

B4: N^ε26-[(2S)-2-amino-6-[[(2S)-2-amino-6-[[(4S)-4-carboxy-4-(13-carboxytridecanoylamino)butanoyl]amino]hexanoyl]amino]hexanoyl], … (peptide)
peptide: HXEGTFTSDVSSYLEGQAAKEFIAWLVHGRK
modifications: Aib at 8; Lys 26 and Lys 37 each acylated at the epsilon-amino group with the side chain given in the name (numbering of GLP-1(7-37), His = 7)
IC50 [1]: 0.93 nM
EC50/pM (0% HSA), In vitro potency (CRE luciferase) [3]: 7.8 pM
EC50/pM (1% HSA), In vitro potency (CRE luciferase) [3]: 80 pM
EC50 (ratio 1% HSA/0% HSA), CRE luciferase [4]: 10.3 ratio
EC50/pM, In vitro potency (AlphaScreen) [5]: 48 pM
IC50 [2]: 71 nM

H[Aib]EGTFTSDVSSYLEEQAAK([εLys-AEEA-AEEA-γGlu-Dodecanoyl(12-OPh(4-COOH))])EFIAWLVRGRK([εLys-AEEA-AEEA-γGlu-Dodecanoyl(12-OPh(4-COOH))])
EC50/pM (0% HSA), In vitro potency (CRE luciferase) [3]: 3.6 pM
EC50/pM (1% HSA), In vitro potency (CRE luciferase) [3]: 141 pM
EC50/pM, In vitro potency (AlphaScreen) [5]: 369 pM
IC50 [2]: 484 nM

H[Aib]EGTFTSDVSSYLEEQAAK([εLys-γGlu-γGlu-Undecanoyl(11-OPh(4-COOH))])EFIEWLVRGRK([εLys-γGlu-γGlu-Undecanoyl(11-OPh(4-COOH))])
IC50 [1]: 0.03 nM
EC50/pM (0% HSA), In vitro potency (CRE luciferase) [3]: 1.5 pM
EC50/pM (1% HSA), In vitro potency (CRE luciferase) [3]: 391 pM
EC50 (ratio 1% HSA/0% HSA), CRE luciferase [4]: 260 ratio
IC50 [2]: 641 nM

B5: N^ε26-[(2S)-6-[[(2S)-6-[[(4S)-4-carboxy-4-[11-(4-carboxyphenoxy)undecanoylamino]butanoyl]amino]-2-(dimethylamino)hexanoyl]amino]-2-(dimethylamino)hexanoyl], … (peptide)
peptide: XXEGTFTSDVSSYLEGQAAKEFIAWLVRGRK
modifications: not fully specified; Imp (imidazopropionyl, des-amino histidine) at 7; Aib at 8; Lys 26 and Lys 37 each acylated at the epsilon-amino group with the side chain given in the name (numbering of GLP-1(7-37))
EC50/pM (0% HSA), In vitro potency (CRE luciferase) [3]: 7.9 pM

B6: N^ε26-[(2S)-2-amino-6-[[(2S)-2-[[2-[[(2S)-2-[[(4S)-4-carboxy-4-[12-(4-carboxyphenoxy)dodecanoylamino]butanoyl]amino]-3-hydroxypropanoyl]amino]acetyl]amino]-3-hy … (peptide)
peptide: XXEGTFTSDVSSYLEGQAAKEFIAWLVRGRK
modifications: Imp (imidazopropionyl, des-amino histidine) at 7; Aib at 8; Lys 26 and Lys 37 each acylated at the epsilon-amino group with the side chain given in the name (numbering of GLP-1(7-37))
EC50/pM (0% HSA), In vitro potency (CRE luciferase) [3]: 9.4 pM

B7: Comparative compound (WO2011/080103) Example 4 (peptide)
peptide: HXEGTFTSDVSSYLEGQAAKEFIAWLVRGRK
modifications: Aib at 8; 26K and 37K acylated: protracting moiety C14 diacid, linker gGlu-2xOEG (numbering of GLP-1(7-37), His = 7)
notes: X stands for Aib
IC50 [1]: 6.02 nM
In vitro potency (Example 44) EC50/pM [6]: 366 pM
In vitro potency (Example 45) (0% HSA) EC50/pM [6]: 46 pM
In vitro potency (Example 45) (1% HSA) EC50/pM [6]: 92 pM
IC50 [7]: 357 nM
